In the supplement of paper PMC6755084:

B1: F1*; the commonest letter at each place (parent)
chain: GAGACCGCAACTGAAAAGTTGTTATCACTTGTCGTAAGACACTTTGGATGGGTTGAAGTTCTGCACGTAGAAGCAAAAGGC

Variants of: B1
Assay: fraction ligated after 30 min (ligated reads / total reads); higher = more ligase activity
Conditions: with F1*sub RNA substrate (template-directed ligation), 42 °C
In short: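 The ligase ribozyme variants were produced by PCR amplification of oligo-pool templates, T7 transcription and purification on gel. Their ligated and unligated forms were gel-separated, then reverse transcribed with barcoded primers before MiSeq sequencing. Core bases were filtered at a quality of ≥20, and fraction ligated per variant was ligated reads over total reads.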

Point of comparison: G34A A37T, fraction ligated 0.84. Against it:
- G34T T49A — lower, 0.756
- G34T T49C — lower, 0.633
- G34T T49G — lower, 0.772
- C33T A39G — lower, 0.833
- C33T A39T — lower, 0.831
- C33T A39C — lower, 0.804
- G34C A48T — lower, 0.781
- G34C A48C — lower, 0.756
- G34C A48G — lower, 0.753
- T35A A41T — lower, 0.831
- T35A A41G — lower, 0.811
- T35A A41C — lower, 0.792
- G34T A36G — lower, 0.834
- G34T A36T — lower, 0.827
- G34T A36C — higher, 0.843
- G34C G46T — lower, 0.762
- G34C G46A — lower, 0.789
- G34C G46C — lower, 0.757
- T35A G47T — lower, 0.398
- T35A G47C — lower, 0.221
- T35A G47A — lower, 0.811
- G34A T49C — lower, 0.737
- G34A T49A — lower, 0.786
- G34A T49G — lower, 0.819
- C33T T45C — lower, 0.815
- C33T T45A — lower, 0.75
- C33T T45G — lower, 0.103
- C33G G38A — higher, 0.847
- C33G G38C — lower, 0.829
- C33G G38T — lower, 0.837
- G34A G46C — lower, 0.798
- G34A G46A — lower, 0.807
- G34A G46T — lower, 0.778
- C33T G47C — lower, 0.165
- C33T G47T — lower, 0.32
- C33T G47A — lower, 0.836
- G34T A57G — the same, 0.84
- G34T A57C — lower, 0.806
- G34T A57T — lower, 0.81
- T35A T43C — lower, 0.794
- T35A T43G — lower, 0.807
- T35A T43A — the same, 0.84
- G34T G47A — lower, 0.764
- G34T G47T — lower, 0.363
- G34T G47C — lower, 0.342
- C33G A56C — lower, 0.837
- C33G A56G — lower, 0.793
- C33G A56T — higher, 0.867
- C33G C42G — higher, 0.853
- C33G C42T — lower, 0.833
- C33G C42A — lower, 0.826
- G34C A41G — lower, 0.758
- G34C A41C — lower, 0.808
- G34C A41T — lower, 0.778
- C33G T35C — lower, 0.825
- C33G T35G — higher, 0.843
- C33G T35A — higher, 0.872
- G34C T49C — lower, 0.0345
- G34C T49G — lower, 0.75
- G34C T49A — lower, 0.776
- G34A G38A — higher, 0.861
- G34A G38C — lower, 0.825
- G34A G38T — lower, 0.838
- C33G T44C — lower, 0.804
- C33G T44A — lower, 0.812
- C33G T44G — lower, 0.808
- G34T A56C — lower, 0.805
- G34T A56T — lower, 0.793
- G34T A56G — lower, 0.785
- C33T G50A — lower, 0.603
- C33T G50T — lower, 0.804
- C33T G50C — lower, 0.324
- T35A G55C — lower, 0.819
- T35A G55T — lower, 0.834
- T35A G55A — higher, 0.868
- G34A A37C — lower, 0.835
- G34A A37G — higher, 0.859
- T35A G46T — lower, 0.783
- T35A G46C — lower, 0.799
- T35A G46A — lower, 0.837
- G34T T43A — lower, 0.827
- G34T T43C — lower, 0.782
- G34T T43G — lower, 0.793
- G34C — lower, 0.832
- G34A — higher, 0.848
- G34T — higher, 0.848
- G34A A48T — lower, 0.798
- G34A A48C — lower, 0.772
- G34A A48G — lower, 0.795
- G34A C42T — higher, 0.865
- G34A C42G — higher, 0.85
- G34A C42A — lower, 0.839
- G34T A48T — lower, 0.801
- G34T A48C — lower, 0.756
- G34T A48G — lower, 0.77
- G34T C42T — higher, 0.848
- G34T C42A — higher, 0.849
- G34T C42G — higher, 0.841
- G34C C40T — lower, 0.803
- G34C C40A — lower, 0.805
- G34C C40G — lower, 0.818
- C33T C40A — higher, 0.875
- C33T C40T — higher, 0.859
- C33T C40G — higher, 0.877
- G34C A39T — lower, 0.781
- G34C A39G — lower, 0.807
- G34C A39C — lower, 0.806
- G34T G55A — lower, 0.835
- G34T G55T — lower, 0.81
- G34T G55C — lower, 0.796
- G34A T45C — lower, 0.795
- G34A T45G — lower, 0.368
- G34A T45A — lower, 0.797
- G34T T35C — lower, 0.81
- G34T T35G — higher, 0.847
- G34T T35A — higher, 0.854
- T35A A37T — higher, 0.86
- T35A A37G — higher, 0.844
- T35A A37C — higher, 0.872
- C33T G34A — higher, 0.855
- C33T G34T — higher, 0.853
- C33T G34C — lower, 0.831
- C33T A56C — lower, 0.795
- C33T A56T — higher, 0.847
- C33T A56G — lower, 0.797
- G34C T44C — lower, 0.803
- G34C T44A — lower, 0.816
- G34C T44G — the same, 0.84
- T35A C42G — higher, 0.847
- T35A C42T — higher, 0.85
- T35A C42A — higher, 0.845
- T35A A56C — lower, 0.802
- T35A A56G — lower, 0.799
- T35A A56T — lower, 0.82
- G34T A37G — lower, 0.829
- G34T A37T — higher, 0.843
- G34T A37C — higher, 0.844
- C33T T49C — lower, 0.697
- C33T T49G — lower, 0.801
- C33T T49A — lower, 0.787
- C33G A57C — higher, 0.847
- C33G A57G — higher, 0.881
- C33G A57T — lower, 0.836
- C33G C40T — lower, 0.825
- C33G C40A — lower, 0.819
- C33G C40G — lower, 0.826
- G34C T45G — lower, 0.0478
- G34C T45C — lower, 0.733
- G34C T45A — lower, 0.0783
- G34T A39C — lower, 0.779
- G34T A39G — lower, 0.808
- G34T A39T — lower, 0.804
- T35A T45A — lower, 0.797
- T35A T45C — lower, 0.788
- G34C G47A — lower, 0.774
- G34C G47T — lower, 0.352
- G34C G47C — lower, 0.365
- G34T G50A — lower, 0.606
- G34T G50C — lower, 0.396
- G34T G50T — lower, 0.767
- G34C G55C — lower, 0.768
- G34C G55T — lower, 0.809
- G34C G55A — lower, 0.838
- G34A T43C — lower, 0.779
- G34A T43G — lower, 0.799
- G34A T43A — lower, 0.836
